# Test results taken from publication PMC10237670, “Biochemical properties of naturally occurring human bloom helicase variants”.
# B1: partial dsDNA with 3' ssDNA overhang (oRC32/FAM-oAV320) (dsDNA)
# DNA 1: TGGCGACGGCAGCGAGGCTTAGGGTTAGCGTTAGCGTTAGGGTTTTTTTTTTTTTTT
# DNA 2: GCCTCGCTGCCGTCGCCA
# Columns and labels:
# BLMcore P868L [1] = target: T1, BLMcore P868L (Homo sapiens, UniProt P54132 636-1298, P868L); experiment: EMSA; 5 mM MgCl2; distinct shift; estimated apparent KD; 50 mM Tris-HCl pH 7.5, 50 mM KCl, 5 mM MgCl2, 1 mM DTT, 0.1 mg/mL BSA, 40 nM DNA, 30 min room temperature; 5% gel in TBE + 100 mM KCl at 4 C; details: protein: recombinant; (HisTrap purified); label: 3'-FAM on oAV320 (strand 2); 18 bp duplex, 3' overhang 39 nt on strand 1
# BLMcore G1120R [2] = target: T2, BLMcore G1120R (Homo sapiens, UniProt P54132 636-1298, G1120R); experiment: as above; details: protein: recombinant; (HisTrap purified); label: 3'-FAM on oAV320 (strand 2); 18 bp duplex, 3' overhang 39 nt on strand 1
# BLMcore P868L [3] = target: T1, BLMcore P868L; experiment: EMSA; 5 mM MgCl2; smear; estimated apparent KD; 50 mM Tris-HCl pH 7.5, 50 mM KCl, 5 mM MgCl2, 1 mM DTT, 0.1 mg/mL BSA, 40 nM DNA, 30 min room temperature; 5% gel in TBE + 100 mM KCl at 4 C; details: protein: recombinant, (HisTrap purified)
# BLMcore G1120R [4] = target: T2, BLMcore G1120R; experiment: as above; details: protein: recombinant, (HisTrap purified)
# BLMcore K869A K870A = BLMcore K869A K870A (Homo sapiens, UniProt P54132 636-1298, K869A;K870A); experiment: as above; details: protein: recombinant, (HisTrap purified)
# [5] = label: 3'-FAM, intramolecular G4 (folded in 100 mM KCl) with 3' T-rich ssDNA tail
# T1 sequence (P54132 636-1298 P868L): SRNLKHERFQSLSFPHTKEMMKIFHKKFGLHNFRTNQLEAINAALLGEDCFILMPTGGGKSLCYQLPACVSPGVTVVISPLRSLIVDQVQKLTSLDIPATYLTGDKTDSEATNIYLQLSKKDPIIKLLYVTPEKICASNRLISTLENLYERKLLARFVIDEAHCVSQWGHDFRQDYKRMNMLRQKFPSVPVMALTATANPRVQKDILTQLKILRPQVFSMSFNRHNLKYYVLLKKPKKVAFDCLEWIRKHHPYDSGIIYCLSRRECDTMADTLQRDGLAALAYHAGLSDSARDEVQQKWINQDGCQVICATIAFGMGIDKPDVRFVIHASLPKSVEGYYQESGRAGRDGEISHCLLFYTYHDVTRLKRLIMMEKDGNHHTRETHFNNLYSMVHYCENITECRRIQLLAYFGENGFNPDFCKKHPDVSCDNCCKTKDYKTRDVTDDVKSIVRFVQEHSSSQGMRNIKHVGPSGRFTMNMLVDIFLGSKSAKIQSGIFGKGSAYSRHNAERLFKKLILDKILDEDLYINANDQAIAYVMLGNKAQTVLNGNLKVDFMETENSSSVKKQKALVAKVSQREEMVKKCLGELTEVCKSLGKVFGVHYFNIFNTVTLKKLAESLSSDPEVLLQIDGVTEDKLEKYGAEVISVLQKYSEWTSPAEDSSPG
# T2 sequence (P54132 636-1298 G1120R): as the sequence (P54132 636-1298 P868L) above, with L233P, G485R counted along it
# Chain of BLMcore K869A K870A (P54132 636-1298 K869A/K870A): as the sequence (P54132 636-1298 P868L) above, with L233P, K234A, K235A counted along it
binder,measurement,setting,value
B1,Kd,BLMcore P868L [1],~62.5 nM
same,Kd,BLMcore G1120R [2],~62.5 nM
TTTTTTTTTTTTTTTTTTTTTTTTTTTTTT (ssDNA) [FAM-dT30 (ssDNA)],Kd,BLMcore P868L [3]; single strand,~62.5 nM
same,Kd,BLMcore G1120R [4]; single strand,~62.5 nM
same,Kd,BLMcore K869A K870A; single strand,~312 nM
GGGTTAGGGTTAGGGTTAGGGTTTTTTTTTT (structured_DNA) [G4 DNA with 3' ssDNA overhang (FAM-oRC96)],Kd,BLMcore P868L [3]; [5],~125 nM
same,Kd,BLMcore G1120R [4]; [5],~250 nM
same,Kd,BLMcore K869A K870A; [5],~625 nM
